This is an account of results in EP3623383A1 (Deutsches Krebsforschungszentrum, Stiftung des öffentlichen …, dated 2020).

The target of test [1] is T1, His tagged, recombinant FLT3 protein (Sino Biologicals) (human, UniProt P36888 27-541, limits assumed).
T1 construct: also called soluble recombinant FLT3 protein; not shown: His tag
T1 sequence (looked up): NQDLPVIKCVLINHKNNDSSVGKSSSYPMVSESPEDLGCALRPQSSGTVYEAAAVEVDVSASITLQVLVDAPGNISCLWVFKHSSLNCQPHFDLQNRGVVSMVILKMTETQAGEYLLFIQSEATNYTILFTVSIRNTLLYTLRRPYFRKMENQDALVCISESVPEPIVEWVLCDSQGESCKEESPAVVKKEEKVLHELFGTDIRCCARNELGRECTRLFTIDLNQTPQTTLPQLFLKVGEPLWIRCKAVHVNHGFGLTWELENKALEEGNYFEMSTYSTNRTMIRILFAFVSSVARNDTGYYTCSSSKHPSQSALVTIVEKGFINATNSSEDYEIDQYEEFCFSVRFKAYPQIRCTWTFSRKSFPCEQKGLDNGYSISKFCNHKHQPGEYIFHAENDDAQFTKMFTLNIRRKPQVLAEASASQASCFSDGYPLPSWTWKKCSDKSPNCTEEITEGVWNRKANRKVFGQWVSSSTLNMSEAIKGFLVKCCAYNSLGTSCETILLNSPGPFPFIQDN
Description: SPR (Biacore X); antibody captured on protein A chip, His-tagged FLT3 in solution. In general terms: In SPR one partner is held on a chip, and binding of the other changes the refractive index at the surface.

Test [2] concerns the target T2, CD3 as expressed on Jurkat cells (CD3+) (human, UniProt P07766 23-207).
T2 construct: whole, on cells; CD3 is a complex of several chains; also called Jurkat cells expressing CD3
Description: flow cytometry on CD3+ Jurkat cells; value told of the CD3 binding part shared by V1 to V5. For orientation: Flow cytometry measures light scatter and fluorescence of single cells or particles in a stream.

Test [3] deals with T3, FLT3 as expressed on cells (NALM16 cells, FLT3+) (human, UniProt P36888 27-993).
T3 construct: whole, on cells; Endogenous FLT3 of a human leukemia cell line; also called Nalm16 cells expressing FLT3
T3 sequence (looked up): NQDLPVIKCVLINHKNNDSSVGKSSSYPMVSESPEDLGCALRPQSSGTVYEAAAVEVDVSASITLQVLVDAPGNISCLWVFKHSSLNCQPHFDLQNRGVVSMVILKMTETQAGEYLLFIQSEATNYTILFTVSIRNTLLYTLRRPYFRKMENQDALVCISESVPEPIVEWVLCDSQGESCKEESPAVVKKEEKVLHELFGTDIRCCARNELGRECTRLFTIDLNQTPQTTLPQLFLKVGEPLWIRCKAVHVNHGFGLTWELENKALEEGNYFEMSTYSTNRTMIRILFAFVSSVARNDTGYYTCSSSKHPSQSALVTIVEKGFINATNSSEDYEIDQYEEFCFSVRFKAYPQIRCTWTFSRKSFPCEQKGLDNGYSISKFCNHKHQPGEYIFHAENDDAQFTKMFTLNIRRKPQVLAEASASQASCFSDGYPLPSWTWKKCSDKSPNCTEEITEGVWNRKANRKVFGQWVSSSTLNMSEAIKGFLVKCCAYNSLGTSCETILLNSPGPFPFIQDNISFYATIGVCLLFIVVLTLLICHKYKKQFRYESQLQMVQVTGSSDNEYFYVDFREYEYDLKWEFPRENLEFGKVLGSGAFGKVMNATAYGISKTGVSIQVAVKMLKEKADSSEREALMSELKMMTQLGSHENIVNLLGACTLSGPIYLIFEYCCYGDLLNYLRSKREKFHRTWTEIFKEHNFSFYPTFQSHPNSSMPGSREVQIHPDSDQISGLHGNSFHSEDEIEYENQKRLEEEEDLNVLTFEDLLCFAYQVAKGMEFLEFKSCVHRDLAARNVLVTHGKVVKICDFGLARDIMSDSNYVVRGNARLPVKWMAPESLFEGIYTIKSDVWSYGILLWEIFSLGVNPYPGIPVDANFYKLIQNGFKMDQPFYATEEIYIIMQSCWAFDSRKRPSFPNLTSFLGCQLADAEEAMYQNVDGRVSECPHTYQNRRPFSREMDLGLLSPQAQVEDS
Description: flow cytometry on FLT3+ NALM16 cells; value told of the FLT3 binding part shared by V6 to V9.

Residue numbers refer to the chain shown, from its start.

In general, Kd refers to the constant that tells how readily two partners part at equilibrium. Broadly, the koff is a measure of how fast the partners let go of each other. One may read the kon as a measure of how fast the partners come together. For orientation: EC50 means the concentration giving half of the maximal effect. Higher therefore signals a less potent agent.

T2 sequence (P07766 23-207): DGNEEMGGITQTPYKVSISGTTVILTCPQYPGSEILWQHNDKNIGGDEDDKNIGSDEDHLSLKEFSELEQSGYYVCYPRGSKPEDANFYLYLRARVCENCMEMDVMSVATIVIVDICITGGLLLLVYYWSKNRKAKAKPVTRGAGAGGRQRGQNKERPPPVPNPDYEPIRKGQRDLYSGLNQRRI

B1: V2-V6 (CC-2 variant 2, bispecific FLT3xCD3 IgGsc antibody) (bispecific antibody)
heavy: QVQLVQSGAEVKKPGGSLRLSCAASGYTFTSYWMHWVRQAPGQGLEWIGEIDPSDSYTDYAQKFKDRVTISRDTSKNTLYLQLSSLRAEDTAVYYCARAITTTPFDFWGQGTLVTVSSASTKGPSVFPLAPSSKSTSGGTAALGCLVKDYFPEPVTVSWNSGALTSGVHTFPAVLQSSGLYSLSSVVTVPSSSLGTQTYICNVNHKPSNTKVDKKVEPKSCDKTHTCPPCPAPPVAGPSVFLFPPKPKDTLMISRTPEVTCVVVGVSHEDPEVKFNWYVDGVEVHNAKTKPREEQYNSTYRVVSVLTVLHQDWLNGKEYKCKVSNKQLPSPIEKTISKAKGQPREPQVYTLPPSRDELTKNQVSLTCLVKGFYPSDIAVEWESNGQPENNYKTTPPVLDSDGSFFLYSKLTVDKSRWQQGNVFSCSVMHEALHNHYTQKSLSLSPGKSGDIQMTQSPSSLSASVGDRVTITCRASQDIRNYLNWYQQKPGKAPKLLIYYTSRLESGVPSRFSGSGSGTDYTLTISSLQPEDFATYYCQQGNTLPWTFGQGTKVEIKGGGGSGGGGSGGGGSEVQLVESGGGLVQPGGSLRLSCAASGYSFTGYTMNWVRQAPGKGLEWVALINPYKGVSTYNQKFKDRFTISVDKSKNTAYLQMNSLRAEDTAVYYCARSGYYGDSDWYFDVWGQGTLVTVSS
light: EIVMTQSPATLSVSPGERATLSCRASQSISNNLHWYQQKPGQAPRLLIKYASQSISGIPARFSGSGSGTEFTLTISSLQSEDFAVYFCQQSNTWPYTFGGGTKLEIKTVAAPSVFIFPPSDEQLKSGTASVVCLLNNFYPREAKVQWKVDNALQSGNSQESVTEQDSKDSTYSLSSTLTLSKADYEKHKVYACEVTHQGLSSPVTKSFNRGEC
notes: IgGsc format, Fc-attenuated; also called Version 2; Humanized 4G8 FLT3 variable region Variant 2 with V6 CD3 scFv
For the molecule B1, in test [1], the dissociation constant Kd was 88 µM, the koff came out at 0.0318 s⁻¹ and the kon turned out to be 540 M⁻¹ s⁻¹. The EC50 in test [2] is ~10 nM.

B2: V1-V6 (CC-2 variant 1, bispecific FLT3xCD3 IgGsc antibody) (bispecific antibody)
heavy: B1 heavy
light: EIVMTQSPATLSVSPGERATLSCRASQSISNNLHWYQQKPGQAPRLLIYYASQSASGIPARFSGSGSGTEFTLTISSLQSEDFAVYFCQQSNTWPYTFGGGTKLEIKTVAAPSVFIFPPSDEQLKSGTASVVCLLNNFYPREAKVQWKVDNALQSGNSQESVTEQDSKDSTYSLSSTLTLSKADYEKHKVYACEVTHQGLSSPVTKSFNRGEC
notes: also called Version 1; Humanized 4G8 FLT3 variable region Variant 1 with V6 CD3 scFv
In the case of B2, in test [1], the Kd was determined as 63 µM, the koff worked out at 0.022 s⁻¹ and the kon amounted to 489 M⁻¹ s⁻¹. Moreover, the 50% effective concentration (EC50) in test [2] is ~10 nM.

B3: V5-V6 (CC-2 variant 5, bispecific FLT3xCD3 IgGsc antibody) (bispecific antibody)
heavy: B1 heavy with T58K, A61N
light: B1 light
notes: IgGsc format, Fc-attenuated; also called Version 5; Humanized 4G8 FLT3 variable region Variant 5 with V6 CD3 scFv
For the molecule B3, in test [1], the dissociation constant Kd amounted to 0.16 µM, the dissociation rate constant (koff) is 0.00449 s⁻¹ and the kon came to 29600 M⁻¹ s⁻¹. Moreover, in test [2], the EC50 is ~10 nM.

B4: V6-V8 (CC-2 variant, parental 4G8 FLT3 domain with UCHT1 CD3 scFv variant V8) (bispecific antibody, human IgG1, kappa)
heavy: QVQLQQPGAELVKPGASLKLSCKSSGYTFTSYWMHWVRQRPGHGLEWIGEIDPSDSYKDYNQKFKDKATLTVDRSSNTAYMHLSSLTSDDSAVYYCARAITTTPFDFWGQGTTLTVSSASTKGPSVFPLAPSSKSTSGGTAALGCLVKDYFPEPVTVSWNSGALTSGVHTFPAVLQSSGLYSLSSVVTVPSSSLGTQTYICNVNHKPSNTKVDKKVEPKSCDKTHTCPPCPAPPVAGPSVFLFPPKPKDTLMISRTPEVTCVVVGVSHEDPEVKFNWYVDGVEVHNAKTKPREEQYNSTYRVVSVLTVLHQDWLNGKEYKCKVSNKQLPSPIEKTISKAKGQPREPQVYTLPPSRDELTKNQVSLTCLVKGFYPSDIAVEWESNGQPENNYKTTPPVLDSDGSFFLYSKLTVDKSRWQQGNVFSCSVMHEALHNHYTQKSLSLSPGKSGDIQMTQSPSSLSASVGDRVTITCRASQDIRNYLNWYQQKPGKAPKLLIYYTSRLESGVPSRFSGSGSGTDYTLTISSLQPEDFATYYCQQGNTLPWTFGQGTKVEIKGGGGSGGGGSGGGGSEVQLVESGGGLVQPGGSLRLSCAASGYSFTGYTMNWVRQAPGKGLEWVALINPYKGVSTYNQKFKDRFTISVDDSKNTAYLQMNSLRAEDTAVYYCARSGYYGDSDWYFDVWGQGTLVTVSS
light: DIVLTQSPATLSVTPGDSVSLSCRASQSISNNLHWYQQKSHESPRLLIKYASQSISGIPSRFSGSGSGTDFTLSINSVETEDFGVYFCQQSNTWPYTFGGGTKLEIKRTVAAPSVFIFPPSDEQLKSGTASVVCLLNNFYPREAKVQWKVDNALQSGNSQESVTEQDSKDSTYSLSSTLTLSKADYEKHKVYACEVTHQGLSSPVTKSFNRGEC
notes: IgGsc format, Fc-attenuated
Consider B4, for which, in test [3], the EC50 is ~1 nM.

B5: V6-V6 (CC-2, FLT3 (4G8) x CD3 (humanized UCHT1) bispecific IgGsc antibody) (bispecific antibody)
heavy: B4 heavy with D645K
light: B4 light
notes: Mouse 4G8 variable regions on human IgG1 constant regions, Fc-attenuated, C-terminal humanized UCHT1 scFv; also called mouse FLT3xCD3 bispecific antibody
B5: in test [3], the concentration giving a half-maximal response (EC50) is ~1 nM.

B6: V6-V7 (CC-2 variant, parental 4G8 FLT3 domain with UCHT1 CD3 scFv variant V7) (bispecific antibody, human IgG1, kappa)
heavy: B4 heavy with N632A, Q633D, K634S, D637G
light: B4 light
notes: IgGsc format, Fc-attenuated
On to B6, for which the EC50 in test [3] was ~1 nM.

B7: V3-V6 (CC-2 variant 3, bispecific FLT3xCD3 IgGsc antibody) (bispecific antibody)
heavy: QVQLVQSGAEVKKPGASVKVSCKASGYTFTSYWMHWVRQAPGQGLEWIGEIDPSDSYKDYNQKFKDRVTMTRDTSTSTVYMELSSLRSEDTAVYYCARAITTTPFDFWGQGTTVTVSSASTKGPSVFPLAPSSKSTSGGTAALGCLVKDYFPEPVTVSWNSGALTSGVHTFPAVLQSSGLYSLSSVVTVPSSSLGTQTYICNVNHKPSNTKVDKKVEPKSCDKTHTCPPCPAPPVAGPSVFLFPPKPKDTLMISRTPEVTCVVVGVSHEDPEVKFNWYVDGVEVHNAKTKPREEQYNSTYRVVSVLTVLHQDWLNGKEYKCKVSNKQLPSPIEKTISKAKGQPREPQVYTLPPSRDELTKNQVSLTCLVKGFYPSDIAVEWESNGQPENNYKTTPPVLDSDGSFFLYSKLTVDKSRWQQGNVFSCSVMHEALHNHYTQKSLSLSPGKSGDIQMTQSPSSLSASVGDRVTITCRASQDIRNYLNWYQQKPGKAPKLLIYYTSRLESGVPSRFSGSGSGTDYTLTISSLQPEDFATYYCQQGNTLPWTFGQGTKVEIKGGGGSGGGGSGGGGSEVQLVESGGGLVQPGGSLRLSCAASGYSFTGYTMNWVRQAPGKGLEWVALINPYKGVSTYNQKFKDRFTISVDKSKNTAYLQMNSLRAEDTAVYYCARSGYYGDSDWYFDVWGQGTLVTVSS
light: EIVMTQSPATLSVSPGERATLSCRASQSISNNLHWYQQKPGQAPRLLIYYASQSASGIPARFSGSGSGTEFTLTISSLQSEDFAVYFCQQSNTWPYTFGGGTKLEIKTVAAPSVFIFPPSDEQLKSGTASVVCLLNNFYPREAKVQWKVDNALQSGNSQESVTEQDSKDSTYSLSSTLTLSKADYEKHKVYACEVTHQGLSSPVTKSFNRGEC
notes: also called Version 3; Humanized 4G8 FLT3 variable region Variant 3 with V6 CD3 scFv
As to B7, in test [1], the Kd amounted to 87 µM, the koff came to 0.0233 s⁻¹ and the association rate constant (kon) amounted to 276 M⁻¹ s⁻¹. The EC50 in test [2] is ~10 nM.

B8: V4-V6 (CC-2 variant 4, bispecific FLT3xCD3 IgGsc antibody) (bispecific antibody)
heavy: B7 heavy
light: B1 light
notes: IgGsc format, Fc-attenuated; also called Version 4; variant V4
Turning to B8, in test [1], the dissociation constant Kd is 0.48 µM, the koff was found to be 0.00887 s⁻¹ and the association rate constant (kon) was 18800 M⁻¹ s⁻¹. In addition, in test [2], the EC50 is ~10 nM.
